Results: PMC2935576 (The Journal of Cell Biology, 2010)
Blank lines part the entries; values can stand above or below the molecule they belong to.

What was measured:
Spc105p 800-829 = Spc105p 800-829 (UniProt P53148); assay: ITC, Spc105p peptide 1 with MIND complex; conditions: reference: untreated MIND complex; sites S250
[1] = target: recombinant S. cerevisiae NDC80 complex (Ndc80p, Nuf2p, Spc24p, Spc25p), His-tagged on Ndc80p (S. cerevisiae, UniProt P40460;P33895;Q04477;P40014); assay: ITC
Dsn1p–Nsl1p heterodimer = target: T1, Dsn1p–Nsl1p heterodimer (S. cerevisiae, UniProt P40568;Q12143); assay: AUC
T1 sequence 1: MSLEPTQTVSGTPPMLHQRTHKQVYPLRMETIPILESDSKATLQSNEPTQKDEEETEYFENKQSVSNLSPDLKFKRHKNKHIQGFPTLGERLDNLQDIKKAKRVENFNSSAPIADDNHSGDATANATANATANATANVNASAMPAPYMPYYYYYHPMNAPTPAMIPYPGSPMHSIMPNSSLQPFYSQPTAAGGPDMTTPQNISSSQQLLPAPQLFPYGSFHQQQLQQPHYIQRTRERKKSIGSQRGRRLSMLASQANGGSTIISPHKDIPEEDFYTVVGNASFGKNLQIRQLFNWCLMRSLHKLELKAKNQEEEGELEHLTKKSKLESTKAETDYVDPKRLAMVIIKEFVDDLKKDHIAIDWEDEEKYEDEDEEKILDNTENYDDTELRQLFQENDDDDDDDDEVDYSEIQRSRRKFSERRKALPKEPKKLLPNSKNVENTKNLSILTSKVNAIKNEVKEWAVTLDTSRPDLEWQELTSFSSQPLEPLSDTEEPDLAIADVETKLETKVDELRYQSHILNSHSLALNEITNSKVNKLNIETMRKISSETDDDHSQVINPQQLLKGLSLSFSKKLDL
T1 sequence 2: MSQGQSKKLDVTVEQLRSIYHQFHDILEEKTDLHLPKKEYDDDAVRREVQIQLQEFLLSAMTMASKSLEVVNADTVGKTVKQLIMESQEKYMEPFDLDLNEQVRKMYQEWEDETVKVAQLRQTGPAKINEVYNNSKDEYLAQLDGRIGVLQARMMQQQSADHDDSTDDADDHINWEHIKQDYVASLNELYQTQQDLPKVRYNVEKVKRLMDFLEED

[2] = target: T2, Dsn1p residues 103–412 (trypsin-resistant fragment) (S. cerevisiae, UniProt P40568 103-412); assay: limited proteolysis
T2 sequence: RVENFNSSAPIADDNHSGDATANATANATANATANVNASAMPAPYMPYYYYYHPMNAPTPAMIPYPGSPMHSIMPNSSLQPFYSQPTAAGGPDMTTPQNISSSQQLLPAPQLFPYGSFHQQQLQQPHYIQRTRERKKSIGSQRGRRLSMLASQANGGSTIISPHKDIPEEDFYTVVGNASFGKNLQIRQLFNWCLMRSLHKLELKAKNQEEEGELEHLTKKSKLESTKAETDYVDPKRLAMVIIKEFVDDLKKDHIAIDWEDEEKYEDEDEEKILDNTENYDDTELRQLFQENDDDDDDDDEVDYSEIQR

[3] = target: T3, Mtw1p residues 1–220 (trypsin-resistant fragment) (S. cerevisiae, UniProt P39731 1-220); assay: limited proteolysis
T3 sequence: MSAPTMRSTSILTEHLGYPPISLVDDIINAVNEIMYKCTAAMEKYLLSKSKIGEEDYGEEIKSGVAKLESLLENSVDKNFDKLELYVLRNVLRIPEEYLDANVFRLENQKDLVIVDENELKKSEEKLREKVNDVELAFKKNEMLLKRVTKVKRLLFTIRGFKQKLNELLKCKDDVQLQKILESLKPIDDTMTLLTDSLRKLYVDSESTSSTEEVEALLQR

Sequence of recombinant S. cerevisiae NDC80 complex (Ndc80p, Nuf2p, Spc24p, Spc25p), His-tagged on Ndc80p (P40460 whole entry, chain 1 of 4): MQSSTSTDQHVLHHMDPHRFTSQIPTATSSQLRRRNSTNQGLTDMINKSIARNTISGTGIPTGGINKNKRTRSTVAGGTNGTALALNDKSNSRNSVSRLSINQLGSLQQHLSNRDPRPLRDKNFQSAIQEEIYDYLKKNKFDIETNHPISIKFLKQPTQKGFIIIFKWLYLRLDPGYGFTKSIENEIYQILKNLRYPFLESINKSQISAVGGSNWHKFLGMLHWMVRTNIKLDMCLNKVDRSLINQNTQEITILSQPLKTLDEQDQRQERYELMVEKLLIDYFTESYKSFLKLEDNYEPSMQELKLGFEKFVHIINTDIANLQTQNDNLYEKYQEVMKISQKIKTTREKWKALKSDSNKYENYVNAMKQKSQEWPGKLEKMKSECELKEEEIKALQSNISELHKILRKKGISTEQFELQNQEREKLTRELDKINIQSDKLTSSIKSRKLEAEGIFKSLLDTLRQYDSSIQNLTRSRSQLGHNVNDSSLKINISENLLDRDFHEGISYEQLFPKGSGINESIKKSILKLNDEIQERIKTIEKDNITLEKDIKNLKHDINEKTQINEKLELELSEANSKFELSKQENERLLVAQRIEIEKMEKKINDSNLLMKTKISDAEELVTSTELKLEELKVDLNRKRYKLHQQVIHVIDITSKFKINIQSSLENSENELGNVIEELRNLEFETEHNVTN
Sequence of recombinant S. cerevisiae NDC80 complex (Ndc80p, Nuf2p, Spc24p, Spc25p), His-tagged on Ndc80p (P33895 whole entry, chain 2 of 4): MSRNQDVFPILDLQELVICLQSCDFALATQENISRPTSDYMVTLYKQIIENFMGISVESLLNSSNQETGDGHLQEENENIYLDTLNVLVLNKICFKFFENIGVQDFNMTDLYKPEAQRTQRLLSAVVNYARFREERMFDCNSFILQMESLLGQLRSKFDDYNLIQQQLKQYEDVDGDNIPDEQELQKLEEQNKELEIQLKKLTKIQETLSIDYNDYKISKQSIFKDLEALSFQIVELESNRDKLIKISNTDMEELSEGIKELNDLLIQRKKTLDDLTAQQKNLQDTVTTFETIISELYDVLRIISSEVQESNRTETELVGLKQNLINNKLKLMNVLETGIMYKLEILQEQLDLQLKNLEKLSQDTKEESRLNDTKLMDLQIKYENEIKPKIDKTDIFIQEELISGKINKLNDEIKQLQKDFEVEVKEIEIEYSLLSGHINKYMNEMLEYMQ
Sequence of recombinant S. cerevisiae NDC80 complex (Ndc80p, Nuf2p, Spc24p, Spc25p), His-tagged on Ndc80p (Q04477 whole entry, chain 3 of 4): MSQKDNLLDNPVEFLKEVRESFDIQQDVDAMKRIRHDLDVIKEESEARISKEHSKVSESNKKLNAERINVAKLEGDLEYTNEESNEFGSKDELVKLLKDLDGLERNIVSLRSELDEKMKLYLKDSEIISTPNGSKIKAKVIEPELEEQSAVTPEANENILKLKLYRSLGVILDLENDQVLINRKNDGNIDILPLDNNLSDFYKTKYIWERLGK
Sequence of recombinant S. cerevisiae NDC80 complex (Ndc80p, Nuf2p, Spc24p, Spc25p), His-tagged on Ndc80p (P40014 whole entry, chain 4 of 4): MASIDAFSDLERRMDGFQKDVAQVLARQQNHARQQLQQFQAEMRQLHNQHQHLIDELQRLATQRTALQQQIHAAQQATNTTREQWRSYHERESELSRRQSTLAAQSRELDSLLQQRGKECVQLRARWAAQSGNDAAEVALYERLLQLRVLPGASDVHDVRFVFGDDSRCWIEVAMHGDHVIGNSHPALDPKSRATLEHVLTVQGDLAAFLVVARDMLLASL

Molecule: Dsn1p (from UniProt P40568) Ipl1p-phosphorylated MIND complex (Dsn1p pS250)
binding against the reference (Spc105p 800-829): same

binding result [1]: binds
B1: MIND complex phosphorylated on Dsn1p Ser250 by Ipl1p (complex)
chain 1: MSLEPTQTVSGTPPMLHQRTHKQVYPLRMETIPILESDSKATLQSNEPTQKDEEETEYFENKQSVSNLSPDLKFKRHKNKHIQGFPTLGERLDNLQDIKKAKRVENFNSSAPIADDNHSGDATANATANATANATANVNASAMPAPYMPYYYYYHPMNAPTPAMIPYPGSPMHSIMPNSSLQPFYSQPTAAGGPDMTTPQNISSSQQLLPAPQLFPYGSFHQQQLQQPHYIQRTRERKKSIGSQRGRRLSMLASQANGGSTIISPHKDIPEEDFYTVVGNASFGKNLQIRQLFNWCLMRSLHKLELKAKNQEEEGELEHLTKKSKLESTKAETDYVDPKRLAMVIIKEFVDDLKKDHIAIDWEDEEKYEDEDEEKILDNTENYDDTELRQLFQENDDDDDDDDEVDYSEIQRSRRKFSERRKALPKEPKKLLPNSKNVENTKNLSILTSKVNAIKNEVKEWAVTLDTSRPDLEWQELTSFSSQPLEPLSDTEEPDLAIADVETKLETKVDELRYQSHILNSHSLALNEITNSKVNKLNIETMRKISSETDDDHSQVINPQQLLKGLSLSFSKKLDL
chain 2: MSAPTMRSTSILTEHLGYPPISLVDDIINAVNEIMYKCTAAMEKYLLSKSKIGEEDYGEEIKSGVAKLESLLENSVDKNFDKLELYVLRNVLRIPEEYLDANVFRLENQKDLVIVDENELKKSEEKLREKVNDVELAFKKNEMLLKRVTKVKRLLFTIRGFKQKLNELLKCKDDVQLQKILESLKPIDDTMTLLTDSLRKLYVDSESTSSTEEVEALLQRLKTNGKQNNKDFRTRYIDIRTNNVLRKLGLLGDKEDEKQSAKPDARTQAGDIVSIDIEEPQLDLLDDVL
chain 3: MVNSHGIRYIRLKQVFNRALDQSISKLQSWDKVSSCFPQYVNSKQGAINVANCQRQLTEFWTELCQREFKEIMEERNVEQKLNELDELILEAKERYTDRDQDEVNKGPAIDELSSKELVECHLYSQRMHAIHEIDERLAKVNEMNDQLAQELKDLETQVEVEKNEIGKMYDEYLGSHTDQPANVLLVQSLNDMVLELKENY
chain 4: MSQGQSKKLDVTVEQLRSIYHQFHDILEEKTDLHLPKKEYDDDAVRREVQIQLQEFLLSAMTMASKSLEVVNADTVGKTVKQLIMESQEKYMEPFDLDLNEQVRKMYQEWEDETVKVAQLRQTGPAKINEVYNNSKDEYLAQLDGRIGVLQARMMQQQSADHDDSTDDADDHINWEHIKQDYVASLNELYQTQQDLPKVRYNVEKVKRLMDFLEED
modifications: phosphoserine at 250

stoichiometry N (Dsn1p–Nsl1p heterodimer): 1
B2: Mtw1p–Nnf1p heterodimer (complex)
chain 1: MSAPTMRSTSILTEHLGYPPISLVDDIINAVNEIMYKCTAAMEKYLLSKSKIGEEDYGEEIKSGVAKLESLLENSVDKNFDKLELYVLRNVLRIPEEYLDANVFRLENQKDLVIVDENELKKSEEKLREKVNDVELAFKKNEMLLKRVTKVKRLLFTIRGFKQKLNELLKCKDDVQLQKILESLKPIDDTMTLLTDSLRKLYVDSESTSSTEEVEALLQRLKTNGKQNNKDFRTRYIDIRTNNVLRKLGLLGDKEDEKQSAKPDARTQAGDIVSIDIEEPQLDLLDDVL
chain 2: MVNSHGIRYIRLKQVFNRALDQSISKLQSWDKVSSCFPQYVNSKQGAINVANCQRQLTEFWTELCQREFKEIMEERNVEQKLNELDELILEAKERYTDRDQDEVNKGPAIDELSSKELVECHLYSQRMHAIHEIDERLAKVNEMNDQLAQELKDLETQVEVEKNEIGKMYDEYLGSHTDQPANVLLVQSLNDMVLELKENY

binding result [2]: binds
B3: Nsl1p (natural protein)
chain: MSQGQSKKLDVTVEQLRSIYHQFHDILEEKTDLHLPKKEYDDDAVRREVQIQLQEFLLSAMTMASKSLEVVNADTVGKTVKQLIMESQEKYMEPFDLDLNEQVRKMYQEWEDETVKVAQLRQTGPAKINEVYNNSKDEYLAQLDGRIGVLQARMMQQQSADHDDSTDDADDHINWEHIKQDYVASLNELYQTQQDLPKVRYNVEKVKRLMDFLEED

binding result [3]: binds
B4: Nnf1p (natural protein)
chain: MVNSHGIRYIRLKQVFNRALDQSISKLQSWDKVSSCFPQYVNSKQGAINVANCQRQLTEFWTELCQREFKEIMEERNVEQKLNELDELILEAKERYTDRDQDEVNKGPAIDELSSKELVECHLYSQRMHAIHEIDERLAKVNEMNDQLAQELKDLETQVEVEKNEIGKMYDEYLGSHTDQPANVLLVQSLNDMVLELKENY
